Measured values reported in a protein production outcome set (Wang et al. 2014).

Test: label from the status in PepcDB records

MNHSNLTILSVCSNFVIVVLKLIVGFFTGSVAVISEGIHSSMDLFASIITFFSIRISNQPADEDHPYGHGKAENIAGTIETLLIFVAGIWIIVESVNKLVNPHEIRFPALGIMVMLFGAIVNIIVSRIIKKAADEANSVAMKSNALHLYTDVFTSLGIALSLFLVYITGWLWLDPVIAILTAFYIMYEAYKLLKESFPPLMDKRLSADEEEAIKQIILAHKTRFIEFHDFRSRRAGAEEYIDFHLVVSSSMTIESAHSLCDEIEAEIMNFYAKAEVLIHLEPEEERVLTRI
protein production: failed

MVEASFGYEDFIVRMATGLLVGALIGIERERAQLVGKSEKSGSIPGFRSMGFMGLYGSATGYVSSYTASQYGVVFAALIAGLGAATITLLTLLFAYTRMIRLRAMGFTTYVVILLTFVAGLMSGMGLILEGVAVGVIGGLLLASKYPVVRMTRSVSYSELIALMEVAALILVLGPAVYYAGGYIPFIDVFQVYIFFTAIVAVSFTSYIASRIWGVRGFVTSIILGSIVNSEAVVASIASRRDIDRGVVFQAVVAALSVMQLRIAGLGLLALLVGGGFPQGEVVLHFRDNILPWLILLALMTIASIVAWASTLALEKVENKGVIPGTPLQWGVAVRGAVAFLLLTLLFDAASRALSGYTGNIAFLTLSIIGGFISANATLLSLAGLLTRLGADTFTVGILGIALGATFNKILYTRAVGAPPETVKEITKATALMSLLPVFFLILFWLLLQTPTG
protein production: failed

MKSYLVGGAVRDALLGQPAGDCDWVVVGADPAHMKSLGFKPVGRDFPVFLHPKTGEEFALARTERKNGHGYRGFIVNADPTVTLEQDLQRRDFTINAIARDQTNGTLIDPYGGVNDLEQRVLRHISPAFAEDPLRVLRAARFMARLAPLGFSIAPETLAMMRQMAANGELNSLIPERIWKELSRSLTYTQPAAFLHTLRTVNALEVVLPELNALYGVPQHADYHPEIDTGLHQELVSDIAAKLAPGDMLIGFAALCHDLGKALTPRATWPHHPMHEQRGMAPTQQLSERLKVPRNYQQLALIACREHLNVHRLSKLHDNTVYELLQRCDAFRRPERIAQLAIVCEADYRGRYGHEDANYPQGQHLCRLHAAALAINARDLNRQDLHGTQIGEALAQARIRAISSAGVYDGGTGTNF
protein production: failed

MKAKAILLASVLLVGCQTSQNTGNVQQHAQSLSAAGQGEAGKFTSQARWMDDGTSIAPDQDLWAFIGDELKMGIPENSRIREQKQKYLRNKSYLHDVTLRAEPYMYWIAGQVKKRNMPMELVLLPIVESAFDPHATSGANAAGIWQIIPSTGRNYGLKQTRNYDARRDVVASTTAALDMMQRLNKMFDGDWLLTVAAYNSGEGRVMRAIKANKARGKPTDFWSLSLPRETKLYVPKMLALSEILKNSKRYGVRLPTTDESRALARVRLNSPVEMAQVADMAGMSISKLKTFNAGVKGSTLGVSGPQYVMVPKKHAEQLRESLASGEIDAVQSQLIADNTPLNSRSYKVRSGDTLSGIASRLGVSTKDLQQWNNLRGSRLKIGQSLTVGAGSSAQRLANNSDSITYRVRKGDSLSSIARRHGVNIKDVMRWNHDTDNLQPGDQLTLFVKDNSTPDSLEHHHHHH
protein production: not failed

MKSILEQLSSMTVVVADTGDLDSIKKFQPRDATTNPSLILAAAKNPDYVKLIDKAIESSENTLPNGFSEIELIKETVDQVSVFFGKEILKIISGRVSTEVDARLSFDTEATVKKARKLINLYKNFGIEKERILIKIAATWEGIKAAEILEKEGIKCNLTLLFNFCQAVTCANANITLISPFVGRILDWHKAKTGKTSFIGAEDPGVISVTQIYKYFKEKGFKTEVMGASFRNLDEIKELAGCDLLTIAPKFLEELKREKGVLIRKLDASTKINNSIDYKFEEKDFRLSMLEDQMASEKLSEGITGFSKAIEELEELLIERLSEMKNHKLISAN
protein production: not failed

YLGPQGTFTHQAAVNAAQELARFEPQGFDLMPMDDVPQILDAAQHGDGWGIVAWENNVEGYVVPNLDALIDAKDLVGFARVGVNVEFDAYVAQGADPAEARIATAHPHGLAQCKRFIAEHRLSTQPATSNAAACRDLIPGEIAFGPAICGELYDITRIGTAIQDYQGAATDFLVLSPRAE
protein production: failed

MSINIISIVSIIIWILLITELIKPSKEQNGRKIVTLVTAGSASTLILTVSFIQNIPFWN
protein production: failed

MSRKVILTCAVTGNAPFNPKHPSMPITPAQIADACVEAAKAGASVAHIHVRDPKTGGGSRDPVLFKEVVDRVRSSGTDIVLNLTCGLGAFLLPDPEDESKALPESDVVPVAERVKHLEDCLPEIASLDITTGNQVEGKLEFVYLNTTRTLRAMARRFQELGIKPELEVFSPGDILFGKQLIEEGLIDGVPLFQMVLGVLWGAPASTETMIYQRNLIPANAQWAAFGIGRDQMPMMAQAALLGGNVRVGLEDNLYLSRGVFATNGQLVERARTVIEHLGMSVATPDEARDIMGLSRPA
protein production: not failed

MFTNSGVFIMYKILEKKEIAMRNTWYKIYAPHVAKKVQPGQFVIVRAFPNGERIPLTPIMWDREEGWIVLVAFTKGKTTMKMAMELKEGDEILNVAGPLGNPAPMEKFGKILAIGAYVGIAEVYPIAKAWQEIGNDVTTLHVTFEPMVILKDYFEKAVSRHIVEPVKIDQEKSFQENTKNVTKALTAKVKELLDNENWDLVFMVGPPGDQKAVFEVVKKYGIPMKVDLHPIMVDGTGMCGACRVTVGGEVKFACVDGPEFDAYLVDWDELIHRVGFYSKLEKLALEKYMEELKAKGVI
protein production: failed

MNPITELLDATLWIGGVPILWREIIGNVFGLFSAWAGMRRIVWAWPIGIIGNALLFTVFMGGLFHTPQNLDLYGQAGRQIMFIIVSGYGWYQWSAAKRRALTPENAVAVVPRWASTKERAGIVIAAVVGTLSFAWIFQALGSWGPWADAWIFVGSILATYGMARGWTEFWLIWIAVDIVGVPLLLTAGYYPSAVLYLVYGAFVSWGFVVWLRVQKADKARALEAQESVTV
protein production: failed

MHELIRDITLCILFAWMLGLLAHFSRQPLILAYLIAGFCIGPFGAGWVKSQESISVISELGLIFMLFMIGLEIDLKKIVRAGKVILFAAGGQLPGGCLLGVLFFAGIGLSLGGGHFDAVYLCIACALSSTVIIVKVLYEKRELDTLPGRITLGVLVLQDIFAILFLAVQPSLANLQVSVILLSIGRVAVLVAAALLVSRYVLPRLFHQIARRPELILLGALAWCFLVAETAERLSLSREMGALIAGVSLSTFPYALDVTAKVTTLRDFFITLFFVALGMTIPVPGLSVIGLALMIAAFTVVSRLVTTFTPLYLMKQGLRASLLPALNLAQISEFSLVVIQTGVTDNHIAAETANAASFAFVVLAVLSTFVMTRSDEIARWAIGPLKRIGLRDLDHGNGHAEEGHEGGHGEARRIVILGFFRAASALLAEIERQAPVLLEQITVVDFNPNVYQTLLSRGLHVIYGDISSADTLLHAGVGKSEMIILSVPDALLKGASNEKLVRHVRTLNPTAMIVATADLLSDVGELYEAGASYVTVTRLSDAHELFTVIEAAQAGLLADKRAELDLRLGERREVLP
protein production: failed

MPCCSHRRCREDPGTSESQEMEEWALLDISQRKLYKEVMLETFRNLTSVGKSWKDQNIEYEYQNPRRNFRSLIEKKVNEIKDDSHCGETFTQVPDDRLNFQEKKASPEIKSCDSFVCGEVGLGNSSFNMNIRGDIGHKAYEYQEYGPKP
protein production: failed

MPKWTPYKRHPGVYEYQTKKGKRFGVRRTYDDAMGERKEFSKSGFIHWQDADIEIKRFEAKLVSGEVSGSLANRMTIDQYYQQMAKRKMKMGIWRESTARANGNFYSKYLKPAFGKTPLQDVSRAKYQRFLDELSQSGLALTTVHTIDAVMKSIMNAAEFEDVIDKNRLRGMQINGKAPRNKDLEPHSFELWLNAAKTNLDKYEMALIITATLGLRRGEVMGLRNESIKISHDQINDADVAQISIDMQRNTNELNGGPLKTKSSYRTIWAFGKTVDHLKYAMITADNLRQRNNIQAEKHWLWLNNDGNPLHPTHLNRLMRRVSNRSGVEVYPHLLRHYFATQAIAANKPQIDVMHYLGHKNLQMTADYTRSTKAASLNVFNSIDKFL
protein production: failed

MGVSPQVARWFDCDLRSVVDHGVDRLRFTWKLGDPVEAELPSEEPFWMVRRDRFDHFLVEQAANLGARIEDGAAVTAVSAEGDGWLVTVGDRAYRSRTLIAADGARGPLAQWLGFPSQKRRYAQACELDVPLPARPDSTAHFEFGLVRNGYIWVFPKSDGYSIGIGTFRGNDATDFRGLLETYLAGFGVSADLDRIVPHPLCVWDGSQPLHRGSALLVGEAASLTDPFTAEGIRPALLSGMRAAEAIDRAIAGDRNALAGYSRTIQQEWGDSMAWAKRISSVFYRVPNLGYQIGIKRPTAPQRMAQILVGELDYSDIATRVIRRLTTGFLPGMRLEHHHHHH
protein production: failed

MVSPQGVIVARAIISCGVASKKPFYRDQTMETDFSVHSHKGKGSLMRRKPALRLLCSAALAAALAIGAGASPGFAETKAKPEDKAVTFDPGKVNTFSGAFLAGRNADVDQDYPTAISLYKKALEYDPANSEIRQRLMIAELLSGNFEAGAKIADSMKDDTSVERVTTIVRGLDAIKDKEFTKAEKILKYTGPNDLDRMVNTLLTAWARAGSGKPKEALALVNNMKGPGWISIFQKYNAAAIALVSGNTEAARKSLNEAVTDREGGATASDTYMRAVMALARLEASAGNKQKALDAIAVGDTFAPNYAPLKALREAIEKGEKPEQQITNAVEGAASVMFSIAGALNREGAEEIVTLYLQTSRALDPKSPDTLILLGGLAEAMKQPERAITFYREVPKDSPMHRISELQLGLTLAQTGKVEESRKHLLSLLESDPKDIRSYLAYGSVLSDAKDYKAMAENYDKAVEVIGAVPQKSDWSVFFQRGIAYERLKQWDKAEPNFKRALELNPEQPQVLNYLGYSWVDKGINLDEGMKMISRAVELRPNDGYIVDSLGWAHYRLGDFDQSVTELERAIELKAGDPTINDHLGDAYWRVGRKIEAVYQWNRALIGDNDDVDKAKVKEKIANGLPPVEKDAENTAKKDVAPQPPAPPAPATPTPDKKS
protein production: failed

MSDAEQPAESETHDHHDHDHEGPGYATPQAAIEAAEPEQTAYVMGLHVGQDVDAPDFLAVVDLDPDSDTYSEIINRVQMPNKGDELHHFGWNACSSSCHMDGLERRHLVIPGQRSSRIHIVDTKERRDPELTKVIEPEEVYEHDLSAPHTVHCIPDGEILISMLGDADGDLPGGFLELNDDFEVQGRWDPPGEIEMNYDYWYQPRQNVMLSTEWAAPKTYYPGFDLDDVEDGKYGQRLNFWDWEDGVIEQTIDLGEDGLIPLEARFLHTPESTHGYVGAALSSNIIHFHESDGRYHAEPVIEFDDREHEGWDMPVPALVTDILISMDDRYLFGSSWLHGEVWMYDISDPSNPRKADSISIGGYFGDIEQVQGRDIVAGPQMLQLSLDGERLYWTTSLFSSWDNQFFPEEAEKGSVMLKADVDPRTGTMSLDRDFLVDFGDLPEGPARAHEIRWPDGDCTSDVWQ
protein production: failed

MAAGTDSTGTFATRHSANECLQLQERLWLLEQIAGSASRTALRTTVARGNECRLASCIDLNPEGRPILPSCSALGRAGAAARCCAGRRGRSRARARPAGQTGGGSRVAAECRHISHRGGRGIPVSGGGGAWRSGGASNGRGVFLRPAGTGGSRLATGARQANLGCGPRPACPPAMDQDYERRLLRQIIIQNENTVPCVSEMRRTLTPANSPVSSPSKHGDRFIPSRAGANWSVNFHRINENEKSPSQNRKAKDATSDNGKDGLAYSALLKNELLGAGIEKVQDPQTEDRRLQPSTPEHKGLFTYSLSSKRSSPDDGNDVSPYSLSPVSNKSQKLLRSPRKPTRKISKIPFKVLDAPELQDDFYLNLVDWSSLNVLSVGLGTCVYLWSACTSQVTRLCDLSVEGDSVTSVGWSERGNLVAVGTHKGFVQIWDAAAGKKLSVLEGHTARVGALAWNADQLSSGSRDRMILQRDIRTPALQSERRLQGHRQEVCGLKWSTDHQLLASGGNDNKLLVWNHSSLSPVQQYTEHLAAVKAIAWSPHQHGLLASGGGTADRCIRFWNTLTGQPLQCIDTGSQVCNLAWSKHANELVSTHGYSQNQILVWKYPSLTQVAKLTGHSYRVLYLAMSPDGEAIVTGAGDETLRFWNVFSKTRSTKESVSVLNLFTRIR
protein production: failed

MNGDDDAKRSGKRLPDQPAKTQRTKGPVSFPSTVSLASLCEEGATASSNLDLLASCSSVQGSEDCDCEGHQPESERRLKRPRQAPWAAEPANQRRPPFDHGNSESIPPAGVQSQGTSASNGTDSSERKSTEATWSRQSVDCSTAEKLAGNLCANQVSAERSGQFYTKVNELLHDLHKERVSRQCRSPHES
protein production: failed
